Target: the molecule itself
Assay: negative-stain transmission electron microscopy with class sums; purified, detergent-solubilized PfFNT (yeast-produced in DM, cell-free in Brij 78); uranyl acetate stain; reference-free alignment without any symmetry imposed

Row | Protein | stoichiometry N
1 | Plasmodium falciparum lactate transporter PfFNT, produced in Pichia pastoris yeast (natural protein, UniProt O77389 1-309, looked up, PfFNT, lactate transporter (formate-nitrite transporter family) of Plasmodium falciparum; monomer printed as 30 kDa, pentamer 150 kDa; Homopentamer; also called cell-based PfFNT; yeast-produced PfFNT; source: P. pastoris (PichiaPink), fermenter culture; membranes solubilized with LDAO, purified (Ni-NTA, size exclusion) in DM; not shown: His10, C-terminal, kept) MPPNNSKYVLDPVSIKSVCGGEESYIRCVEYGKKKAHYSNLNLLAKAILAGMFVGLCAHASGIAGGLFYYHKLREIVGASMSVFVYGFTFPIAFMCIICTGSDLFTGNTLAVTMALYEKKVKLLDYLRVMTISLFGNYVGAVSFAFFVSYLSGAFTNVHAVEKNHFFQFLNDIAEKKVHHTFVECVSLAVGCNIFVCLAVYFVLTLKDGAGYVFSVFFAVYAFAIAGYEHIIANIYTLNIALMVNTKITVYQAYIKNLLPTLLGNYIAGAIVLGLPLYFIYKEHYYNFERSKRDNNDAQMKSLSIELRN | 5
2 | Plasmodium falciparum lactate transporter PfFNT, produced cell-free in an E. coli S30 extract (natural protein, UniProt O77389 1-309, looked up, PfFNT, lactate transporter (formate-nitrite transporter family) of Plasmodium falciparum; codon-optimized open reading frame in pIVEX2.3; monomer printed as 30 kDa, pentamer 150 kDa; Homopentamer; A factor Xa digestion site lies between PfFNT and the C-terminal His10-tag; no cleavage is reported; also called cell-free PfFNT; cell-free produced PfFNT; source: E. coli S30 extract cell-free system …) MPPNNSKYVLDPVSIKSVCGGEESYIRCVEYGKKKAHYSNLNLLAKAILAGMFVGLCAHASGIAGGLFYYHKLREIVGASMSVFVYGFTFPIAFMCIICTGSDLFTGNTLAVTMALYEKKVKLLDYLRVMTISLFGNYVGAVSFAFFVSYLSGAFTNVHAVEKNHFFQFLNDIAEKKVHHTFVECVSLAVGCNIFVCLAVYFVLTLKDGAGYVFSVFFAVYAFAIAGYEHIIANIYTLNIALMVNTKITVYQAYIKNLLPTLLGNYIAGAIVLGLPLYFIYKEHYYNFERSKRDNNDAQMKSLSIELRN | 5

Source: publication PMC6467934, “Cell-Free and Yeast-Based Production of the Malarial Lactate Transporter, PfFNT, Delivers Comparable Yield and Protein Quality” (Frontiers in Pharmacology, 2019)
